Consider 1 molecule from patent JP2023550785A (dated 2023).

For assay [1], the target named is T1, HCoV-OC43 prefusion-stabilized spike (S) protein / S ectodomain trimer (human coronavirus OC43, UniProt P36334 14-1297).
T1 sequence: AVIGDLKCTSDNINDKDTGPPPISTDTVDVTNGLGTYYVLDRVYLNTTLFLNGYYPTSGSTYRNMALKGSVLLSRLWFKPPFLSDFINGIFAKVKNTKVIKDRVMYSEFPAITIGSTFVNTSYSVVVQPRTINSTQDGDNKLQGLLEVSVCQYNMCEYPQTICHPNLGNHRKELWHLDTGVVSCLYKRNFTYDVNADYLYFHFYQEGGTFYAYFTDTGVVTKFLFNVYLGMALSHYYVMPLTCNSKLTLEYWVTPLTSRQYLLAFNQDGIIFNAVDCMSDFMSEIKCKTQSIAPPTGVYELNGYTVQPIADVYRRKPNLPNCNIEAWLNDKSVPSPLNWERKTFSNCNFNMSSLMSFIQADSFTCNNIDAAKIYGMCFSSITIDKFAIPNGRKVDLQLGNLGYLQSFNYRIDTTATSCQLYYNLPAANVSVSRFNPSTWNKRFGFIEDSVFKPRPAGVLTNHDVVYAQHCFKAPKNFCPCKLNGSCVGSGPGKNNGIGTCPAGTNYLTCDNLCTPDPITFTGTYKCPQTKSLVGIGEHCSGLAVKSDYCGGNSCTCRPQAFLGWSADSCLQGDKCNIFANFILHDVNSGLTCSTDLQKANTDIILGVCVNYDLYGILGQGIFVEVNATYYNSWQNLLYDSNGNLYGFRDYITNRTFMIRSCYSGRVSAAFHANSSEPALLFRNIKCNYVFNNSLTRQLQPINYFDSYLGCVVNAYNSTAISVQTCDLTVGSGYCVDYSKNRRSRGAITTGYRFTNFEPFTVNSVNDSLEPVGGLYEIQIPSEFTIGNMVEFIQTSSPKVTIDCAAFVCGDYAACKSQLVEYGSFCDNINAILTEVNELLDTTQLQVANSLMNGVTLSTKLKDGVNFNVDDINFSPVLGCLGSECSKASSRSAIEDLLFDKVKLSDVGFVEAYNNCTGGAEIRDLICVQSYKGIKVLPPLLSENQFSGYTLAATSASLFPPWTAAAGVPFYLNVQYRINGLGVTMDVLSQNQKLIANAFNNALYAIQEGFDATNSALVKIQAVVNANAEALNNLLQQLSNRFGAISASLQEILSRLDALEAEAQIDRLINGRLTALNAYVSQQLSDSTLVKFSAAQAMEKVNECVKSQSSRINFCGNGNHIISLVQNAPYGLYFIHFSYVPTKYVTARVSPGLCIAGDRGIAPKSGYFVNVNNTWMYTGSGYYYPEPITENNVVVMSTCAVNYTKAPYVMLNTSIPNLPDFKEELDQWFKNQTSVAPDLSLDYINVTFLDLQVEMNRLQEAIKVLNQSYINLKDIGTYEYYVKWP

Assay [2] deals with SARS-CoV (Urbani strain) prefusion-stabilized spike (S) protein / S ectodomain trimer (SARS-CoV (Urbani strain), UniProt P59594 14-1195).
Assay [3] concerns the target T2, MERS-CoV (London1/2012) prefusion-stabilized spike (S) protein / S ectodomain trimer (MERS-CoV (London1/2012), UniProt K9N5Q8 18-1296).
T2 sequence: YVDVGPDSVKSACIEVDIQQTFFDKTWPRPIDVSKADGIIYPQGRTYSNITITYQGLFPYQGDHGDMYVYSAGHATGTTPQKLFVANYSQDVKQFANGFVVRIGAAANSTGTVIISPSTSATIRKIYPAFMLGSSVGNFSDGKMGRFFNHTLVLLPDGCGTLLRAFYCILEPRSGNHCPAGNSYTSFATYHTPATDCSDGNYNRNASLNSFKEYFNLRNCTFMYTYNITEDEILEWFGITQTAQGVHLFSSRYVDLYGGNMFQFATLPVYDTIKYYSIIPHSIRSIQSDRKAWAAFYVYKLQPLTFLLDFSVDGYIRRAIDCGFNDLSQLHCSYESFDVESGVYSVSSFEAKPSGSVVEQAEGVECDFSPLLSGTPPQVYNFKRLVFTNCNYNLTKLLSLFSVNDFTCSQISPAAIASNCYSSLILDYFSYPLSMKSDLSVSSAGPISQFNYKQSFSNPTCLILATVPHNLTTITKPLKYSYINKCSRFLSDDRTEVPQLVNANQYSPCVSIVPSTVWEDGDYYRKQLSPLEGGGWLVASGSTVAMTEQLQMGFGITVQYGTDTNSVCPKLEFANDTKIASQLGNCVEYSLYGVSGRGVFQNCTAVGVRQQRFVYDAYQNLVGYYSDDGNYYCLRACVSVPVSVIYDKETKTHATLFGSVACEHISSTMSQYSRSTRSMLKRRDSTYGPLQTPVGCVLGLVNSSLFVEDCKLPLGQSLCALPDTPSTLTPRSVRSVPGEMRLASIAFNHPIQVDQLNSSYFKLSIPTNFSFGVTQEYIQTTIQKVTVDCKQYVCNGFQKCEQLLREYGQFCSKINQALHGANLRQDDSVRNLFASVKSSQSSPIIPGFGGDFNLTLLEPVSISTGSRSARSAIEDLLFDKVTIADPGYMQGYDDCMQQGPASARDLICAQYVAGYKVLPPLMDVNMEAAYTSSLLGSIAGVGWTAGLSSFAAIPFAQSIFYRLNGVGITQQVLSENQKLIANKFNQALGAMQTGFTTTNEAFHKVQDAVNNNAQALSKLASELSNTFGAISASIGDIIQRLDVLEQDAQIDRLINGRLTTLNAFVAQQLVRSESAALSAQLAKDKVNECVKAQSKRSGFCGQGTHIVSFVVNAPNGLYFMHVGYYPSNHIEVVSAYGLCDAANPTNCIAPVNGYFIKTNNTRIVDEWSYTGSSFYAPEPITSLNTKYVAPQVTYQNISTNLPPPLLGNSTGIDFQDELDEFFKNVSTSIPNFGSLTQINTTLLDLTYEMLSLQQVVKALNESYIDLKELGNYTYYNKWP

B1: antibody S2P6 (antibody 420 1 1), human monoclonal antibody expressed as recombinant human IgG1 (antibody, V domains shown)
VH: EVQLVQSGAEVKKPGASVKVSCKASGYTFTSQYMHWVRQAPGQGLEWIGIINPSGVHTSYAQKFQGRVTLTRDTSTSTLYMELSSLRSEDTAVYYCARGSPKGAFDYWGQGTLVTVSS
VL: not shown
On to B1, for which the Kd (usually the constant that tells how readily two partners part at equilibrium) in assay [1] was 0.372 nM; in assay [2], less than 0.001 nM; in assay [3] it was 1.14 nM.
